Legend:
LDH-Htr = target: T1, LDH-Htr (Homo sapiens, UniProt P07195); test: Microscale thermophoresis (MST) binding to labelled LDH-Htr; details: 1.5 s MST on time, n=3, labelled LDH-Htr 100 nM
T1 construct: using the model of dimeric LDH (LDH-Htr); made in house; host or cells: E. coli Rosetta (DE3)
Protocol: MST measurements were performed on a Nanotemper® Monolith NT.115 instrument (NanoTemper Technologies®) using Red-dye-NHS fluorescent labelling. LDH-Htr purified to homogeneity was labelled with the Monolith Red-dye-NHS 2nd generation labelling dye (Nanotemper Technologies®), according to the supplied protocol. Measurements were performed in 50 mM sodium phosphate, pH 7.6, and 100 mM NaCl containing 0.01% Tween-20 in standard-treated capillaries (NanoTemper Technologies®). The final concentration of proteins in the assay was 100 nM. Ligands were titrated in 1:1 dilutions following manufacturer's recommendations. Experiments were performed in triplicates using 40% LED power, high MST power, […] and Laser off time 3 s. Poypeptides were evaluated for their thermophoretic pattern, and Kd's were extracted from raw data at a 1.5 s MST on time following the manufacturer's instructions.

dimeric LDH-Htr [1] = target: T2, dimeric LDH-Htr (Homo sapiens, UniProt P07195); test: NanoDSF thermal shift of dimeric LDH-Htr with peptide; format: binding; details: LDH-Htr 15 μM, polypeptide 500 μM, n=3
T2 construct: using the model of dimeric LDH (LDH-Htr); made in house; host or cells: E. coli Rosetta (DE3)
Protocol: (§1) NanoDSF was performed following previously described by Thabault et al. (see above). • a) Variant evaluation Solutions of proteins (LDH-1, LDH-5 or LDH-Htr) with peptides were evaluated on a Tycho NT.6 device (NanoTemper Technologies®). Evaluations were performed in a 50 mM sodium phosphate and 100 mM NaCl pH 7.6 buffer. According to standard manufacturer's procedures, samples were poured into capillaries and treated as above.

tetrameric LDH-5 = tetrameric LDH-5 (Homo sapiens, UniProt P00338); test: NanoDSF thermal destabilization of tetrameric LDH-5 by peptide; format: binding
Protocol: as §1

dimeric LDH-Htr [2] = target: T2, dimeric LDH-Htr; test: NMR WaterLOGSY with dimeric LDH-Htr; format: binding; details: LDH-Htr 15 μM, LP-22 400 μM
Protocol: Human LDH-H (full length and truncated)-6His proteins for ^1D NMR were expressed and purified from E. coli, as described above. All experiments were performed on an […] system equipped with a broadband cryoprobe (Bruker®) following a previously described in Thabault et al. (see above).
For WaterLOGSY NMR studies, samples were prepared in 10% D2O containing 50 mM sodium phosphate buffer, pH 7.6, and 100 mM NaCl. The concentration of LDHs was ranging from 15 to 20 μM of monomer. Ligand binding was detected using a WaterLOGSY ephogsygpno.2 avance-version sequence with a 1 s mixing time. Water signal suppression was achieved using an excitation-sculpting scheme, and a 50 ms spinlock was used to suppress protein background signals.

[3] = Chemical denaturation with guanidinium-HCl followed by intrinsic fluorescence; format: physicochemical, human; details: protein 1.3 μM, means ± SEM, n=6
Protocol: (§2) All spectrophotometric experiments were performed with opaque 96-well plates using a Spectramax m2e spectrophotometer (Molecular Devices) following previously described in Thabault et al. (see above).
(§3) Intrinsic fluorescence assays: full tryptophan fluorescence spectra were recorded using an excitation wavelength of 286 nm and recording the emission spectra from 320 to 400 nm at room temperature. The raw fluorescence of each experiment was subtracted to a corresponding control experiment without the protein. Experiments were performed in a 50 mM sodium phosphate and 100 mM NaCl, pH 7.6, buffer. For dissociation in subunits, increasing amounts of guanidinium-HCl ranging from 0.3 M to 2 M were put in contact with the studied proteins (1.3 μM), and fluorescence spectra were recorded afterwards.

[4] = NanoDSF thermal denaturation of LDH-H variants; format: physicochemical, human; details: for Ratio 350/330 nm (initial): nanoDSF fluorescence ratio; for Tm: means ± SEM, n=6
Protocol: NanoDSF was performed following previously described by Thabault et al. (see above). • a) Variant evaluation
Solutions of proteins (LDH-H, LDH-Htr, or variants), stored in a 50 mM sodium phosphate, 100 mM NaCl and 20% glycerol, pH 7.6, were evaluated on a Tycho NT.6 device (NanoTemper Technologies®) using concentrations […]. According to standard manufacturer's procedures, samples were poured into capillaries and heated up to 95° C. in 3 min, while following fluorescence emission at 330 and 350 nm. Melting temperatures were extracted from the derivative of the 350/330 nm fluorescence ratios upon increasing temperature. • b) Peptide evaluation

[5] = Intrinsic tryptophan fluorescence spectra; format: physicochemical, human; details: 1.3 μM, λexc 286 nm, n=6
Protocol: as §2, §3

T1 sequence (P07195 21-334): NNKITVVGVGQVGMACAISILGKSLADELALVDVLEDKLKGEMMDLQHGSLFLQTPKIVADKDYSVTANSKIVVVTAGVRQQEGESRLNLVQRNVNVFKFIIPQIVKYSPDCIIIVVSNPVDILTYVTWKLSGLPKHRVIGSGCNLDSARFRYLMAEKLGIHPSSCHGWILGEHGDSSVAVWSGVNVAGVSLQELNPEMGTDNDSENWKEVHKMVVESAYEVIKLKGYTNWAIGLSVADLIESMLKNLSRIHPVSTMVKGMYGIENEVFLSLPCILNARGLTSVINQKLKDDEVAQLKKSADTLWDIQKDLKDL
T2 sequence (P07195 21-334): as above

Compound	Kd (LDH-Htr)	ΔTm of dimeric LDH-Htr (stabilization) (dimeric LDH-Htr [1])	Destabilizing effect on LDH-5 compared to LDH-1 (tetrameric LDH-5; nanoDSF, tetrameric LDH-5 vs LDH-1)	WaterLOGSY saturation transfer with dimeric LDH-Htr (dimeric LDH-Htr [2])	EC50 [3]	NanoDSF denaturation pattern [4]	Ratio 350/330 nm (initial) [4]	Tm ([4]; nanoDSF)	Tryptophan fluorescence intensity compared with LDH-1 [5]	EC50 (tetrameric LDH-5; LDH-5 300 nM, n=3, read-out: EC50 of ΔTm (destabilization) of tetrameric LDH-5)	Tm difference versus LDH-Htr ([4]; nanoDSF)
CSCC[C@H](NC(=O)[C@H](CCC(=O)O)NC(=O)CNC(=O)[C@H](CCCCN)NC(=O)[C@H](CC(C)C)NC(=O)[C@H](CCCCN)NC(=O)[C@H](CC(=O)O)NC(=O)[C@H](CCC(=O)O)NC(=O)[C@@H](N)CC(C)C)C(=O)N[C@@H](CCSC)C(=O)N[C@@H](CC(=O)O)C(=O)N[C@@H](CC(C)C)C(=O)N[C@@H](CCC(N)=O)C(=O)N[C@@H](Cc1c[nH]cn1)C(=O)NCC(=O)N[C@@H](CO)C(=O)N[C@@H](CC(C)C)C(=O)N[C@@H](Cc1ccccc1)C(=O)N[C@@H](CC(C)C)C(=O)N[C@@H](CCC(N)=O)C(=O)N[C@H](C(=O)N1CCC[C@H]1C(N)=O)[C@@H](C)O [LP-22]	156 µM	2.8 °C	higher destabilizing effect	undergoes a saturation transfer	–	–	–	–	–	–	–
F72A: LDH-H recombinant alanine variant F72A of SEQ ID NO: 2	–	–	–	–	< 100000 µM	denaturation patterns comparable to dimeric LDH-Htr	0.94	53.9 ± 0.1 °C	decays in fluorescence intensity characteristic of the dimeric forms of LDHs	–	–
E62A: LDH-H recombinant alanine variant E62A of SEQ ID NO: 2	–	–	–	–	< 100000 µM	denaturation patterns comparable to dimeric LDH-Htr	0.95	58.9 ± 0.1 °C	decays in fluorescence intensity characteristic of the dimeric forms of LDHs	–	–
Ac-GEMMDLQHGSLFLQTP-NH2 [GP-16]	240 µM	–	–	–	–	–	–	–	–	262 µM	–
L71A: LDH-H recombinant alanine variant L71A of SEQ ID NO: 2	–	–	–	–	< 100000 µM	a lower initial ratio and a red-shift	0.90	67.1 ± 0.1 °C	not L71A	–	10 °C
LDH-Htr: dimeric model of LDH-H obtained by truncating its N-terminal tetramerization domain [reference compound]	–	–	–	–	< 100000 µM	concentration-dependent destabilization	0.87	57.5 ± 0.1 °C	–	–	–

From patent publication US20240116987A1, “POLYPEPTIDE INHIBITORS OF LACTATE DEHYDROGENASE ACTIVITY FOR USE IN CANCER THERAPY” (UNIVERSITÉ CATHOLIQUE DE LOUVAIN, priority 2021, published 2024)
